These results are taken from paper PMC6214909, “An asparagine/glycine switch governs product specificity of human N-terminal methyltransferase NTMT2” (Communications Biology, 2018).

Square brackets hold non-standard residues; d marks the D form. Ends that are not written are not given here. NMeS = CN[C@@H](CO)C(=O)O; NMeA = CN[C@@H](C)C(=O)O

The target of one assay is RCC1 (Homo sapiens). Conditions: cited from earlier work.
In assay [1] the target is T1, NTMT2 (residues 58–278) N89G mutant (human, UniProt Q5VVY1 58-278, N89G).
T1 construct: N-terminal methyltransferase NTMT2 (METTL11B/NRMT2), human, residues 58-278; also called NTMT2-N89G; source: E. coli BL21 (DE3), purified with the same protocol as wild type; not shown: SUMO, N-terminal, cleaved
T1 sequence (Q5VVY1 58-278 N89G): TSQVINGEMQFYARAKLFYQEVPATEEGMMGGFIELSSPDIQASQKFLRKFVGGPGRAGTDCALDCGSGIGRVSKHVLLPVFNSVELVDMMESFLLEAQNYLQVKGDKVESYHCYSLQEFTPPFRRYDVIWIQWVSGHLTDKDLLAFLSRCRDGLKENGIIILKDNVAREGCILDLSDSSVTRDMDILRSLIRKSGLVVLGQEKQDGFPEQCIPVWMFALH
Description: ITC; peptide (0.6–1.2 mM) titrated into protein (50–80 μM); 20 mM Tris–HCl pH 7.5, 150 mM NaCl, 0.5 mM TCEP, 25 °C; MicroCal VP-ITC. Conditions: both partners purified.

In the case of NTMT1 (from UniProt Q9BV86), the Kd with RCC1 (Homo sapiens) is 0.8 µM.

B1: Sme1PKRIA peptide (methylated SPKRIA) (peptide)
peptide: [NMeS]PKRIA
notes: N-terminal hexapeptide of regulator of chromatin condensation 1 (RCC1), without the initiator methionine, alpha-N-monomethylated; also called mono-methylated SPKRIA
B1 displayed a Kd in assay [1] of 36 µM.

B2: Ame1PKRIA peptide (peptide)
peptide: [NMeA]PKRIA
notes: XPKRIA peptide derived from the RCC1 N-terminal hexapeptide SPKRIA, with alanine at the first position, alpha-N-monomethylated; also called mono-methylated APKRIA
B2 returned a Kd in assay [1] of 32 µM.
